The values that follow come from patent US12097241B2, “Methods of treating kidney failure, and/or improving or stablizing renal function using modified relaxin polypeptides” (BRISTOL-MYERS SQUIBB COMPANY, priority 2017, dated 2024).

Like-named read-outs stand apart in the source and are kept apart here.

The data set is described as follows: In vivo pharmacokinetic (PK) studies in rats. The arrangement: species or system Sprague-Dawley rats. The following applies: for level at time molar at 24 h: read-out: Rat PK C24; for AUC(0-inf): read-out: Rat PK AUC Total. As for the experimental part:
[…] Blood samples were collected via jugular vein at different time points out to 72 hours. Blood samples were allowed to coagulate at room temperature (30-60 m) and then centrifuged (1500-2000) at 4° C. to obtain serum. After centrifugation serum samples were transferred to 96 well plates and stored at −80° C. until bioanalysis. Relaxin concentrations were measured from serum by ELISA.
Relaxin concentration-time profiles from individual animals were used for analysis. Pharmacokinetic parameters were calculated by non-compartmental methods using Phoenix WinNonlin (version 6.4) or Kinetica (version 5). Mean pharmacokinetic parameters Cmax, AUCinf, C24 and half-life were reported (Table 4). Table 4. In vivo PK data (abbreviations as in Table 3).

[1] abbreviates: rats, SC dose 1.0 mg/kg, adjusted from 0.5 mpk.
Setting [2] is: rat, male Sprague-Dawley rats, single SC dose 1.0 mg/kg, serum ELISA.

As for `CC[C@H](C)[C@@H]1NC(=O)[C@H](C)NC(=O)[C@H]([C@@H](C)CC)NC(=O)[C@H](CCC(N)=O)NC(=O)[C@H](C)NC(=O)[C@H](CCCNC(=N)N)NC(=O)[C@H](C(C)C)NC(=O)[C@H](CC(C)C)NC(=O)[C@H](CCC(=O)O)NC(=O)[C@H](CCCNC(=N)N)NC(=O)CNC(=O)[C@@H](NC(=O)[C@H](CC(C)C)NC(=O)[C@H](CCCCN)NC(=O)[C@@H](NC(=O)[C@@H](NC(=O)[C@H](CCC(=O)O)NC(=O)[C@H](CCC(=O)O)NC(=O)[C@H](CCSC)NC(=O)[C@H](Cc2c[nH]c3ccccc23)NC(=O)[C@H](CO)NC(=O)[C@H](C)N)C(C)C)[C@@H](C)CC)CSSC[C@@H]2NC(=O)[C@@H](NC(=O)[C@H](CCCCN)NC(=O)[C@H](CC(N)=O)NC(=O)[C@H](C)NC(=O)[C@H](CC(C)C)NC(=O)[C@H](C)NC(=O)[C@H](CO)NC(=O)[C@H](Cc3ccc(O)cc3)NC(=O)[C@H](CC(C)C)NC(=O)[C@@H](N)Cc3ccc(C(C)=NOCCNC(=O)[C@H](CCC(=O)O)NC(=O)[C@H](CCC(=O)O)NC(=O)[C@H](CCC(=O)O)NC(=O)CNC(=O)CNC(=O)CNC(=O)CC[C@H](NC(=O)CCCCCCCCCCCCCC(=O)O)C(=O)O)cc3)CSSC[C@H](NC(=O)CNC(=O)[C@H](C(C)C)NC(=O)[C@H](Cc3c[nH]cn3)NC2=O)C(=O)N[C@@H]([C@@H](C)O)C(=O)N[C@@H](CCCCN)C(=O)N[C@@H](CCCNC(=N)N)C(=O)N[C@@H](CO)C(=O)N[C@@H](CC(C)C)C(=O)N[C@@H](C)C(=O)N[C@@H](CCCNC(=N)N)C(=O)N[C@@H](Cc2ccccc2)C(=O)N[C@H](C(=O)O)CSSC[C@@H](C(=O)NCC(=O)N[C@@H](CCSC)C(=O)N[C@@H](CO)C(=O)N[C@H](C(=O)N[C@@H](Cc2c[nH]c3ccccc23)C(=O)N[C@@H](CO)C(=O)O)[C@@H](C)O)NC1=O` [AQ1-EEEGGG-Glu^γ-C14-COOH], under setting [1], the “Rat PK AUC Total” value was 2.137 µM·h and the level at time molar at 24 h was found to be 5.2 nM.
For the compound `CCCCCCCCCCCCCCCC(=O)N[C@@H](CCC(=O)NCC(=O)NCC(=O)NCC(=O)N[C@@H](CCC(=O)O)C(=O)N[C@@H](CCC(=O)O)C(=O)N[C@@H](CCC(=O)O)C(=O)NCCON=C(C)c1ccc(C[C@H](N)C(=O)N[C@@H](CC(C)C)C(=O)N[C@@H](Cc2ccc(O)cc2)C(=O)N[C@@H](CO)C(=O)N[C@@H](C)C(=O)N[C@@H](CC(C)C)C(=O)N[C@@H](C)C(=O)N[C@@H](CC(N)=O)C(=O)N[C@@H](CCCCN)C(=O)N[C@H]2CSSC[C@@H]3NC(=O)CNC(=O)[C@H](C(C)C)NC(=O)[C@H](Cc4c[nH]cn4)NC(=O)[C@H](CSSC[C@H](NC(=O)[C@H](CC(C)C)NC(=O)[C@H](CCCCN)NC(=O)[C@@H](NC(=O)[C@@H](NC(=O)[C@H](CCC(=O)O)NC(=O)[C@H](CCC(=O)O)NC(=O)[C@H](CCSC)NC(=O)[C@H](Cc4c[nH]c5ccccc45)NC(=O)[C@H](CO)NC(=O)[C@H](C)N)C(C)C)[C@@H](C)CC)C(=O)NCC(=O)N[C@@H](CCCNC(=N)N)C(=O)N[C@@H](CCC(=O)O)C(=O)N[C@@H](CC(C)C)C(=O)N[C@@H](C(C)C)C(=O)N[C@@H](CCCNC(=N)N)C(=O)N[C@@H](C)C(=O)N[C@@H](CCC(N)=O)C(=O)N[C@@H]([C@@H](C)CC)C(=O)N[C@@H](C)C(=O)N[C@@H]([C@@H](C)CC)C(=O)N[C@H](C(=O)NCC(=O)N[C@@H](CCSC)C(=O)N[C@@H](CO)C(=O)N[C@H](C(=O)N[C@@H](Cc4c[nH]c5ccccc45)C(=O)N[C@@H](CO)C(=O)O)[C@@H](C)O)CSSC[C@@H](C(=O)O)NC(=O)[C@H](Cc4ccccc4)NC(=O)[C@H](CCCNC(=N)N)NC(=O)[C@H](C)NC(=O)[C@H](CC(C)C)NC(=O)[C@H](CO)NC(=O)[C@H](CCCNC(=N)N)NC(=O)[C@H](CCCCN)NC(=O)[C@H]([C@@H](C)O)NC3=O)NC2=O)cc1)C(=O)O` [AQ1-EEEGGG-Glu^γ-C15-CH3], under setting [2], the AUC(0-inf) was 0.37 µM·h and the level at time molar at 24 h is 0.89 nM.
For `CC[C@H](C)[C@@H]1NC(=O)[C@H](C)NC(=O)[C@H]([C@@H](C)CC)NC(=O)[C@H](CCC(N)=O)NC(=O)[C@H](C)NC(=O)[C@H](CCCNC(=N)N)NC(=O)[C@H](C(C)C)NC(=O)[C@H](CC(C)C)NC(=O)[C@H](CCC(=O)O)NC(=O)[C@H](CCCNC(=N)N)NC(=O)CNC(=O)[C@@H](NC(=O)[C@H](CC(C)C)NC(=O)[C@H](CCCCN)NC(=O)[C@@H](NC(=O)[C@@H](NC(=O)[C@H](CCC(=O)O)NC(=O)[C@H](CCC(=O)O)NC(=O)[C@H](CCSC)NC(=O)[C@H](Cc2c[nH]c3ccccc23)NC(=O)[C@H](CO)NC(=O)[C@H](C)N)C(C)C)[C@@H](C)CC)CSSC[C@@H]2NC(=O)[C@@H](NC(=O)[C@H](CCCCN)NC(=O)[C@H](CC(N)=O)NC(=O)[C@H](C)NC(=O)[C@H](CC(C)C)NC(=O)[C@H](C)NC(=O)[C@H](CO)NC(=O)[C@H](Cc3ccc(O)cc3)NC(=O)[C@H](CC(C)C)NC(=O)[C@@H](N)Cc3ccc(C(C)=NOCCNC(=O)[C@H](CCC(=O)O)NC(=O)[C@H](CCC(=O)O)NC(=O)[C@H](CCC(=O)O)NC(=O)CNC(=O)CNC(=O)CNC(=O)CC[C@H](NC(=O)CCCCCCCCCCCCCCC(=O)O)C(=O)O)cc3)CSSC[C@H](NC(=O)CNC(=O)[C@H](C(C)C)NC(=O)[C@H](Cc3c[nH]cn3)NC2=O)C(=O)N[C@@H]([C@@H](C)O)C(=O)N[C@@H](CCCCN)C(=O)N[C@@H](CCCNC(=N)N)C(=O)N[C@@H](CO)C(=O)N[C@@H](CC(C)C)C(=O)N[C@@H](C)C(=O)N[C@@H](CCCNC(=N)N)C(=O)N[C@@H](Cc2ccccc2)C(=O)N[C@H](C(=O)O)CSSC[C@@H](C(=O)NCC(=O)N[C@@H](CCSC)C(=O)N[C@@H](CO)C(=O)N[C@H](C(=O)N[C@@H](Cc2c[nH]c3ccccc23)C(=O)N[C@@H](CO)C(=O)O)[C@@H](C)O)NC1=O` [AQ1-EEEGGG-Glu^γ-C15-COOH], under setting [2], the AUC(0-inf) came to 3.55 µM·h and the level at time molar at 24 h was determined as 22 nM.
